Experimental data: patent US20250264433A1 (STATE OF ISRAEL MINISTRY OF AGRICULTURE AND RURAL …, published 2025)

Assays:
[1] = molecular target: T1, EspB of enterohemorrhagic E. coli (EHEC); experiment: western blot of culture supernatants with mAb-EspB-B7
T1 construct: also called EHEC EspB

[2] = molecular target: T2, Recombinant His-tagged EspB (EspB-His), EPEC O127:H6 strain E2348/69; experiment: ELISA, EspB-coated plate; mAb incubated in 3% milk in PBS
T2 construct: also called purified EspB; full-length EspB

[3] = molecular target: T2, Recombinant His-tagged EspB (EspB-His), …; experiment: ELISA, EspB-coated plate, serially diluted mAb, anti-human IgG-HRP
[4] = molecular target: T3, EspB of Citrobacter rodentium DBS100 (Citrobacter rodentium); experiment: western blot of culture supernatants, mAb-EspB-B7 as primary antibody
T3 construct: also called C. rodentium EspB

[5] = molecular target: T4, EspB homolog of Salmonella enterica serovar Typhimurium (Salmonella enterica serovar Typhimurium, UniProt D0ZV21 1-409); experiment: as above
T4 construct: also called Salmonella EspB homolog
T4 sequence: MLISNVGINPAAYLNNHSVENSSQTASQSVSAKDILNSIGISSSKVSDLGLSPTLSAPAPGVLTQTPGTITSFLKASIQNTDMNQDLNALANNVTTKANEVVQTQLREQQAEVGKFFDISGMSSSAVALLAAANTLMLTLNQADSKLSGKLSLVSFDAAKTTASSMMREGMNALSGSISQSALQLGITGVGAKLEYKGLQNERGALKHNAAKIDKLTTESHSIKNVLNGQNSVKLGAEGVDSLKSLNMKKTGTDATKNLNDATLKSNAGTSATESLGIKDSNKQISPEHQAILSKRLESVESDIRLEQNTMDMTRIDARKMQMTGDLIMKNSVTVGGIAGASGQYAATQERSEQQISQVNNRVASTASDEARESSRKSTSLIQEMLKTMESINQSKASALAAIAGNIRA

[6] = molecular target: T2, Recombinant His-tagged EspB (EspB-His), …; experiment: ELISA, EspB-coated plate; mAb incubated with NaCl, curve labelled 274mM
[7] = molecular target: T2, Recombinant His-tagged EspB (EspB-His), …; experiment: ELISA, EspB-coated plate; mAb incubated with NaCl, curve labelled 411mM
[8] = molecular target: T2, Recombinant His-tagged EspB (EspB-His), …; experiment: ELISA, EspB-coated plate; mAb incubated with NaCl, curve labelled 45.6mM
[9] = molecular target: T2, Recombinant His-tagged EspB (EspB-His), …; experiment: ELISA, EspB-coated plate; mAb incubated in goat serum with 1% human serum
[10] = molecular target: T2, Recombinant His-tagged EspB (EspB-His), …; experiment: ELISA, EspB-coated plate; mAb incubated in horse serum with 1% human serum
[11] = molecular target: T2, Recombinant His-tagged EspB (EspB-His), …; experiment: SPR (Biacore, EspB amine-coupled to a CM5 chip, mAb injected at 10-90 nM, steady-state fit); ELISA was run as well

B1: mAb-EspB-B7 (antibody, V domains shown)
VH: EVQLLESGGGLVQPGGSLRLSCAASGFTFSHYAMNWVRQAPGKGLEWVSAINSNGDSTYYPDTVKDRFTISRDNSKNTLYLQMNSLRAEDTAVYYCARDRRAGYFDYWGQGTLVTVSS
VL: DIVLTQPPSASGTPGQRVTISCSGSRDNIGKNYVSWYQQLPGTAPKLLIYRNNQRPSGVPDRFSGSKSGTSASLAISGLRSEDEADYYCSAWDTSLNAYVFGPGTQLTVL
notes: also called mAb-B7; anti-EspB antibody
binding result [1]: binds | EC50 (read off the curve) [2]: ~5 nM | EC50 (read off the curve) [3]: ~8 nM | binding result [4]: binds | binding result [5]: no binding | EC50 (read off the curve) [6]: ~7 nM | EC50 (read off the curve) [7]: ~10 nM | EC50 (read off the curve) [8]: ~3 nM | EC50 (read off the curve) [9]: ~2 nM | EC50 (read off the curve) [10]: ~3 nM | Kd [11]: 17.4 nM
